Laboratory results published in publication PMC8041770.
Values belong to the binder of their own block, whether it stands above or below them.

Legend:
[1] = molecular target: yeast-displayed human LIF (hLIF, Ser23 to Phe203) (human) (UniProt P15018); test: flow cytometry on cells; LIF displayed on yeast (EBY100), soluble Fc fusion titrated in PBS with 1 mg/ml BSA, Fc detected with fluorescent secondary antibody; apparent Kd by non-linear regression
[2] = molecular target: recombinant human LIF, histidine-tagged (hLIF-His) (human) (UniProt P15018)
[3] = molecular target: recombinant human LIF, histidine-tagged (hLIF-His) (human) (UniProt P15018); test: Kinetic Exclusion Assay (KinExA); both partners soluble; hLIF-His constant (100 pM for eLIFR-Fc, 250 pM for hLIFR-Fc), LIFR-Fc serially diluted, 18 h, BPBS with 0.02% sodium azide; free LIF-His captured on LIFR-Fc-coated PMMA beads; apparent Kd, n-curve analysis
[4] = molecular target: yeast surface-displayed human LIF (Ser23 to Phe203) (human) (UniProt P15018); test: flow cytometry on cells; hLIF displayed on yeast, soluble Fc fusion titrated in PBS with 1 mg/ml BSA; bound Fc detected by fluorescent anti-Fc antibody; apparent Kd by non-linear regression

Kd [1]: 0.02 nM
B1: C-terminal eLIFR-Fc fusion containing a (Glycine)4Serine linker (Fc fusion)
chain: GGGGSDLKCVTNNLQVWNCSWKAPSGTGRGTDYEVCIENRSRSCYQLEKTSIKIPALSHGDYEITINSLHDFGSSTSKFTLNEQNVSLIPDTPEILNLSADFSTSTLYLKWNDRGSVFPHRSNVIWEIKVLRKESMELVKLVTHNTTLNGKDTLHHWSWASDMPLECAIHFVEIRCYIDNLHFSGLEEWSDWSPVKNISWIPDSQTKVFPQDKVVPVGSDITFCCVSQEKVLSALIGRTNCPLIHLDGENVAIKVRNVSASASSGTNVVFITEDDIFGTVIFAGYPPDTPQQLNCETHDLKEIICSWNPGRVTALVGPRATSYTLVESFSGKYVRLKRAEAPTNESYQLLFQMLPNQEIYNFTLNAHNPLGRSQSTILVNITEKVYPHTPTSFKVKDINSTAVKLSWHLPGNFAKINFLCEIEIKKSNSVQEQRNVTIKGVENSSYLVALDKLNPYTLYTFRIRCSTETFWKWSKWSNKKQHLTTEAS

IC50 of inhibition of LIF (20 pM) signalling through LIFR/gp130 in HeLa STAT3 luciferase reporter cells [2]: 1.8 nM
Kd [3]: 1.1 nM
B2: hLIFR-Fc (wild-type human LIFR CBM I–Ig-like–CBM II fused to hIgG1 Fc) (Fc fusion)
chain: QKKGAPHDLKCVTNNLQVWNCSWKAPSGTGRGTDYEVCIENRSRSCYQLEKTSIKIPALSHGDYEITINSLHDFGSSTSKFTLNEQNVSLIPDTPEILNLSADFSTSTLYLKWNDRGSVFPHRSNVIWEIKVLRKESMELVKLVTHNTTLNGKDTLHHWSWASDMPLECAIHFVEIRCYIDNLHFSGLEEWSDWSPVKNISWIPDSQTKVFPQDKVILVGSDITFCCVSQEKVLSALIGHTNCPLIHLDGENVAIKIRNISVSASSGTNVVFTTEDNIFGTVIFAGYPPDTPQQLNCETHDLKEIICSWNPGRVTALVGPRATSYTLVESFSGKYVRLKRAEAPTNESYQLLFQMLPNQEIYNFTLNAHNPLGRSQSTILVNITEKVYPHTPTSFKVKDINSTAVKLSWHLPGNFAKINFLCEIEIKKSNSVQEQRNVTIKGVENSSYLVALDKLNPYTLYTFRIRCSTETFWKWSKWSNKKQHLTTEAS

Kd [4]: 0.35 nM
B3: full-length eLIFR-Fc (Fc fusion)
chain: QKKGAPHDLKCVTNNLQVWNCSWKAPSGTGRGTDYEVCIENRSRSCYQLEKTSIKIPALSHGDYEITINSLHDFGSSTSKFTLNEQNVSLIPDTPEILNLSADFSTSTLYLKWNDRGSVFPHRSNVIWEIKVLRKESMELVKLVTHNTTLNGKDTLHHWSWASDMPLECAIHFVEIRCYIDNLHFSGLEEWSDWSPVKNISWIPDSQTKVFPQDKVVPVGSDITFCCVSQEKVLSALIGRTNCPLIHLDGENVAIKVRNVSASASSGTNVVFITEDDIFGTVIFAGYPPDTPQQLNCETHDLKEIICSWNPGRVTALVGPRATSYTLVESFSGKYVRLKRAEAPTNESYQLLFQMLPNQEIYNFTLNAHNPLGRSQSTILVNITEKVYPHTPTSFKVKDINSTAVKLSWHLPGNFAKINFLCEIEIKKSNSVQEQRNVTIKGVENSSYLVALDKLNPYTLYTFRIRCSTETFWKWSKWSNKKQHLTTEASPSKGPDTWREWSSDGKNLIIYWKPLPINEANGKILSYNVSCSSDEETQSLSEIPDPQHKAEIRLDKNDYIISVVAKNSVGSSPPSKIASMEIPNDDLKIEQVVGMGKGILLTWHYDPNMTCDYVIKWCNSSRSEPCLMDWRKVPSNSTETVIESDEFRPGIRYNFFLYGCRNQGYQLLRSMIGYIEELAPIVAPNFTVEDTSADSILVKWEDIPVEELRGFLRGYLFYFGKGERDTSKMRVLESGRSDIKVKNITDISQKTLRIADLQGKTSYHLVLRAYTDGGVGPEKSMYVVTKENSVGLIIAILIPVAVAVIVGVVTSILCYRKREWIKETFYPDIPNPE
